T1: recombinant Nogo-A fragment NI-Fr2 (rat, UniProt Q9JK11 233-941, labelled with digoxigenin (molar ratio 5:1) in the colony screening assay)
T1 construct: Truncated rat Nogo-A with C-terminal Strep-tag, made in the E. coli periplasm; also called MI-Fr2; wild-type NI-Fr2
T1 sequence: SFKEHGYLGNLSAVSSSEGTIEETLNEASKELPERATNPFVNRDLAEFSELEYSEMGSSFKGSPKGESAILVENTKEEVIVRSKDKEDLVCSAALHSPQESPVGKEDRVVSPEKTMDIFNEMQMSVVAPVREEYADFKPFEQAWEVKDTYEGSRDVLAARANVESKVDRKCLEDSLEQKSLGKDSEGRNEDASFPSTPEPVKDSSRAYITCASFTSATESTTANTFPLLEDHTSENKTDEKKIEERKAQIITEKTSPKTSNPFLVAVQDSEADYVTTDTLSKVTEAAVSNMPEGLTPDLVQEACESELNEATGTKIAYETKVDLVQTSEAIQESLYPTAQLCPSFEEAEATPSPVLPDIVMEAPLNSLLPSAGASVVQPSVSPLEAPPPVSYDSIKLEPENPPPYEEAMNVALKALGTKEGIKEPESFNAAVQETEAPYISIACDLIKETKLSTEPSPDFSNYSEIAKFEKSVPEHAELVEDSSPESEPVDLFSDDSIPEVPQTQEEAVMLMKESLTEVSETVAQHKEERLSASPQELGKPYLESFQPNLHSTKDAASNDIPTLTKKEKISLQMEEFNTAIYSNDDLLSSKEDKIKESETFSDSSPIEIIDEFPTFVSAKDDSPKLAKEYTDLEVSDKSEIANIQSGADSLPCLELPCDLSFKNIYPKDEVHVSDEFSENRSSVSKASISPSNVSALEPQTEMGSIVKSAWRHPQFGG


Experiments:
[1] = biological target: T1, recombinant Nogo-A fragment NI-Fr2; assay: filter-sandwich colony screening assay; Fab-ABD (pASK106) captured on HSA membrane, digoxigenin-labelled NI-Fr2
Procedure: The mutagenized gene fragment was recloned on the expression vector pASK106-IN1 (encoding a Fab fragment fused with an albumin-binding domain to the C-terminus of its light chain; König and Skerra, supra). E. coli JM83 was transformed with the ligation mixture and transformed cells harboring the pASK106 vector were plated on a hydrophilic membrane (GVWP, 0.22 μm; Millipore, Bedford, Mass.), placed on a petri dish with LB/Amp agar, such that approximately 500 colonies were obtained, and incubated at 37° C. for 8 to 9 h. In the meantime a hydrophobic membrane (Immobilon-P, 0.45 μm; Millipore) was coated with 10 mg/ml human serum albumin (HSA; Sigma, Deisenhofen, Germany) in PBS for four hours and blocked with 3% (w/v) BSA (Roth, Karlsruhe, Germany), 0.5% (v/v) Tween 20 in PBS. The membrane was washed twice with PBS, soaked in LB/Amp containing […], and placed on an LB/Amp agar plate supplemented with […]. The first membrane, carrying tiny colonies of the transformed cells, was then placed onto the second (hydrophobic) membrane. The filter sandwich was incubated for 16 h at 22° C. During this period the mutated IN-1 Fab fragments became secreted—and partially released from the colonies by leakage from the bacterial periplasm—and finally immobilized on the lower membrane via complex formation between HSA and ABD.
The first membrane with the still viable colonies was transferred to a fresh LB/Amp agar plate and stored at 4° C. The second membrane was washed three times in PBS containing 0.1% (v/v) Tween 20 (PBS/T) and the immobilized Fab fragments, each in a spot 30 corresponding to the position of the original colony, were probed for antigen binding. To this end recombinant Nogo-A fragment NI-FR2 was labeled at a molar ratio of 5:1 with digoxigenin-3-O-methylcarbonyl-e-aminocaproic acid N-hydroxy-succinimide ester (Roche Diagnostics, Mannheim, Germany) and applied to the membrane for one hour at a concentration of 30 or 50 μg/ml in PBS/T. After washing three times with PBS/T the membrane was incubated for one hour with 0.75 u/ml anti-digoxigenin Fab fragment conjugated with alkaline phosphatase (Roche Diagnostics) in 10 ml PBS/T. The membrane was finally washed twice with PBS/T and twice with PBS and the signals were developed using standard chromogenic substrates as described (Schlehuber et al., supra).

[2] = biological target: T1, recombinant Nogo-A fragment NI-Fr2; assay: ELISA; NI-Fr2 coated
Procedure: ELISA was carried out in a 96 well microtitre plate (Becton Dickinson, Heidelberg, Germany) at ambient temperature with incubation steps of 1 h unless otherwise stated. Three washing steps with PBS/T were used after each incubation, and residual liquid was removed thoroughly. The wells were coated for 4 h with 50 μl of a solution of MI-Fr2 at concentrations between 180 and 200 μg/ml in PBS buffer and then blocked with 200 μl 3% (w/v) BSA, 0.5% (v/v) Tween 20 in PBS. After washing, 50 μl of the purified recombinant Fab fragment was applied at a dilution series in PBS/T. The wells were then incubated with 50 μl anti-human Cκ antibody conjugated with alkaline phosphatase (Sigma), diluted 1:1000 in PBS/T. Signals were finally developed in the presence of p-nitrophenyl phosphate (Voss and Skerra, (1997) Protein Eng., 10, 975-982). Enzymatic activity was measured at 25° C. as the change in absorbance at 405 nm per min with a SpectraMAX 250 instrument (Molecular Devices, Sunnyvale, Calif.). The data were corrected for background values determined in wells that were merely coated with BSA and fitted by non-linear least squares regression as described by Voss and Skerra, supra
Unfortunately, the I.2.6 mutant of the IN-1 Fab fragment was produced as a soluble protein in E. coli at a much lower level, with a relative yield of 5% after purification (0.04 mg L⁻¹ OD⁻¹ vs. 0.8 mg L⁻¹ OD⁻¹ for the wild-type IN-1 Fab fragment). […] Following earlier substitution experiments concerning position L96 (cf. above) attempts were made to replace the Cys residue in the I.2.6 mutant by small apolar side chains such as those of Ala, Val, Met, Leu, and Ile. The substitutions were introduced by site-directed mutagenesis and all corresponding recombinant Fab fragments were produced and purified as before, resulting in yields that were similar again to the wild type IN-1 Fab fragment.

Row | Binder | binding result [1] | binding result [2]
1 | I.1.6 Fab fragment (IN-1 mutant) (Fab, V domains shown, Chimeric Fab, human IgG1/kappa constant domains) VH: EVKLHESGPGLVRPGTSVKISCKASGYTFTNYWLGWVKQRPGHGLEWIGDIYPGGGYTNYNEKFKGKATLTADTSSSTAYMQLSSLTSEDSAVYFCARFYYGSSYWYFDVWGQGTTVTVSS VL: DIELTQSPAIMAASVGETVTITCGASENIYGALNWYQRKQGKSPQLLIYGATNLADGMSSRFSGSGSGRQYSLKISSLHPDDVATYYCQNVLNLPCTFGAGTKLEIK | binds | 
2 | I.1.11 Fab fragment (IN-1 mutant) (Fab, V domains shown, Chimeric Fab, human IgG1/kappa constant domains) VH: EVKLHESGPGLVRPGTSVKISCKASGYTFTNYWLGWVKQRPGHGLEWIGDIYPGGGYTNYNEKFKGKATLTADTSSSTAYMQLSSLTSEDSAVYFCARFYYGSSYWYFDVWGQGTTVTVSS VL: DIELTQSPAIMAASVGETVTITCGASENIYGALNWYQRKQGKSPQLLIYGATNLADGMSSRFSGSGSGRQYSLKISSLHPDDVATYYCQNVLYTPCTFGAGTKLEIK | binds | 
3 | I.2.4 Fab fragment (IN-1 mutant) (Fab, V domains shown, Chimeric Fab, human IgG1/kappa constant domains) VH: EVKLHESGPGLVRPGTSVKISCKASGYTFTNYWLGWVKQRPGHGLEWIGDIYPGGGYTNYNEKFKGKATLTADTSSSTAYMQLSSLTSEDSAVYFCARFYYGSSYWYFDVWGQGTTVTVSS VL: DIELTQSPAIMAASVGETVTITCGASENIYGALNWYQRKQGKSPQLLIYGATNLADGMSSRFSGSGSGRQYSLKISSLHPDDVATYYCQNVLGTPFTFGAGTKLEIK | binds | 
4 | I.2.5 Fab fragment (IN-1 mutant) (Fab, V domains shown, Chimeric Fab, human IgG1/kappa constant domains) VH: EVKLHESGPGLVRPGTSVKISCKASGYTFTNYWLGWVKQRPGHGLEWIGDIYPGGGYTNYNEKFKGKATLTADTSSSTAYMQLSSLTSEDSAVYFCARFYYGSSYWYFDVWGQGTTVTVSS VL: DIELTQSPAIMAASVGETVTITCGASENIYGALNWYQRKQGKSPQLLIYGATNLADGMSSRFSGSGSGRQYSLKISSLHPDDVATYYCQNVLPCPVTFGAGTKLEIK | binds | 
5 | I.2.6 Fab fragment with Cys L96 replaced by Ala (Fab, V domains shown, Chimeric Fab, human IgG1/kappa constant domains) VH: EVKLHESGPGLVRPGTSVKISCKASGYTFTNYWLGWVKQRPGHGLEWIGDIYPGGGYTNYNEKFKGKATLTADTSSSTAYMQLSSLTSEDSAVYFCARFYYGSSYWYFDVWGQGTTVTVSS VL: DIELTQSPAIMAASVGETVTITCGASENIYGALNWYQRKQGKSPQLLIYGATNLADGMSSRFSGSGSGRQYSLKISSLHPDDVATYYCQNVLRVPATFGAGTKLEIK |  | no binding
6 | I.2.6 Fab fragment with Cys L96 replaced by Ile (Fab, V domains shown, Chimeric Fab, human IgG1/kappa constant domains) VH: EVKLHESGPGLVRPGTSVKISCKASGYTFTNYWLGWVKQRPGHGLEWIGDIYPGGGYTNYNEKFKGKATLTADTSSSTAYMQLSSLTSEDSAVYFCARFYYGSSYWYFDVWGQGTTVTVSS VL: DIELTQSPAIMAASVGETVTITCGASENIYGALNWYQRKQGKSPQLLIYGATNLADGMSSRFSGSGSGRQYSLKISSLHPDDVATYYCQNVLRVPITFGAGTKLEIK |  | no binding
7 | I.2.6 Fab fragment with Cys L96 replaced by Leu (Fab, V domains shown, Chimeric Fab, human IgG1/kappa constant domains) VH: EVKLHESGPGLVRPGTSVKISCKASGYTFTNYWLGWVKQRPGHGLEWIGDIYPGGGYTNYNEKFKGKATLTADTSSSTAYMQLSSLTSEDSAVYFCARFYYGSSYWYFDVWGQGTTVTVSS VL: DIELTQSPAIMAASVGETVTITCGASENIYGALNWYQRKQGKSPQLLIYGATNLADGMSSRFSGSGSGRQYSLKISSLHPDDVATYYCQNVLRVPLTFGAGTKLEIK |  | no binding
8 | I.2.6 Fab fragment with Cys L96 replaced by Met (Fab, V domains shown, Chimeric Fab, human IgG1/kappa constant domains) VH: EVKLHESGPGLVRPGTSVKISCKASGYTFTNYWLGWVKQRPGHGLEWIGDIYPGGGYTNYNEKFKGKATLTADTSSSTAYMQLSSLTSEDSAVYFCARFYYGSSYWYFDVWGQGTTVTVSS VL: DIELTQSPAIMAASVGETVTITCGASENIYGALNWYQRKQGKSPQLLIYGATNLADGMSSRFSGSGSGRQYSLKISSLHPDDVATYYCQNVLRVPMTFGAGTKLEIK |  | no binding
9 | I.4.4 Fab fragment (IN-1 mutant) (Fab, V domains shown, Chimeric Fab, human IgG1/kappa constant domains) VH: EVKLHESGPGLVRPGTSVKISCKASGYTFTNYWLGWVKQRPGHGLEWIGDIYPGGGYTNYNEKFKGKATLTADTSSSTAYMQLSSLTSEDSAVYFCARFYYGSSYWYFDVWGQGTTVTVSS VL: DIELTQSPAIMAASVGETVTITCGASENIYGALNWYQRKQGKSPQLLIYGATNLADGMSSRFSGSGSGRQYSLKISSLHPDDVATYYCQNVLDRPLTFGAGTKLEIK | binds | 
